# Assay: label from the status in PepcDB records
row,Sequence,protein production
1,MNMTAGRRAALTREQASSETMTMESSAYGEAVRAVRTGEISADEAANQLIDRMTEGEVLGLLDGDSSRWVLPFIPALLDRRPFVAGAVSRLGIPGIRFSDGGRGVVIGASTAFPVTIARAATWDPSLEERVGIAIGLETRARGANYSASVCVNLLRHPAWGRAQECYGEDPVLTGRMGSALTRGVRLHVMACVKHFALNSMENERFEVDVAVDEHALHEVYLPHFKAVVDAGADSVMSSYNRVRGEYMDVNRALLTDVLRREWGFSGFVTSDWVFGTHDAVASLEAGMDVEMPLRLLRARELPAALRNGVLARATVLQSARRVLRTCVEHSANRELAAPTRAVIASPAHRALAHQVAAESIVMLKNETVGAAPLLPLAPTIQHLAVIGRLAAQGNLGDHGSSRVRPPSTVSPLQGLREALPGVLISTTTGRDERRAAAMAAAAEMAIVVVGLDQHDEGESVVTGGVDVGVIGRTFGSGPLRQVLIGLAHLASRFVRGGDRSSLNLRPSDERLIQAVVAANPRTVVVLVSGSAILTEAWRDRVPALLLAWYGGMEGGRALASVLTGSEEPGGRLPFVLPTDAAHLPFFDSAAKSVVYDAQWGQRRLDGEGHRPAYPFGFGLSYTTLEHRLIDHTLDSSGGNANVHVTNKGHRKGSTVVQVYAADVSLRRPVAQLLGFRKVTLQPGAETTVRVVLDAGPTLQRDSTTRRWSPRSGVWALQASQHSPDSWENAVRLRRTEGLIDQEGTSDVKPA,failed
2,MNNDISIAALIVTYNPDKRLIESLTKLEKLVDFVVIVDNNSNKSPVLDYISNNIFNDRYLIQLEDNLGIAYALNTGIKYILEKGHYDYILTLDQDTVPLIDDIKELIKRANSIYSNIGIIALISKMDPKIPEFTDVKFPMTSGNIVKSEIFKYIKYREEFFIDSVDFDFDYNVRMHGYRIIQYNYRAIDHNVGITKNGFPYESSERLYYIIRNSTVLFGENKITFRMYIFQAFYWITMGLIHWEILKTAKSSVKGFKDGVNKKLGKNNDI,failed
3,MNNENPLVSILIPVYNREKYIGEAIESAINQTYKNIEVIIVDNCSTDNTWKILQDYQCKDKRIHIFQNEKNLGPVYNWIECFKRAKGVYSKILWSDDWMSLDFVENALSAFNEDISFVISAQQIITNDKEILSNVAYLKDRYSQREYLENALLYNKYNFPLSPGCAIFRTKDVLNNFIVDIPNSDSLDSKKNGAGNDLYLFLKIALHYPYIGVVANSVSYFRAHKESFSVASDLNLYYEWAKVDFINSELRDSYFISAKKMLLFKFSVKNKHFRNICKSLSYNKYILQAVFRLLLIRILEHHHHHH,failed
4,MNNFKLIVRKWYIPVLIISLITLVASAYALYWATIPETKETQISIRHYSALAYFSGGAEVKKDNPIWANGSFVTLPVYSYSLTPEYSGEFYFTTAPRGDITIETEAKIVYFYEVSDAPVWEKVYYAASNTSRGEIKTNFKINVTDLKSKINEAQNSFGVYLGKTGARIDVSVHYYGKITGKDVDETLSFKIPIDVQSTYYSFSTLNETRDFEMPSTRVVEVQKPLHMKVIPAALCTVSIIFAGLSVVYRTKYSDVSSLEREIERVSWEKKLKEVSFARMPETNLEMVEVERFEDISKAAEETFEHLFYDREKGVFFFIHGGVLYYCREK,failed
5,MNNFVSELQSYFASKYPFLSANIPRQQQLLGDSWSQEFDGELIKHFGTIEELRTAADGYAKFAMDSLLLTAKFQKTKDYDNKTYAECASEVYQSESYMHSLYLPGILLSHYLWKHHYAMYQFYKSIVVPVLPKSGLFIDVGVGTGFYSRNLLRDSQMTGIGCDMSPHSLSYTRSTLSKFGTVDKYSFCLCDYYHFNQYFQSTADFILSIEVLEHLEDPMKMLESLYKSLKPGGLGLISAAVNAPNADHIYLYRSCEDVRHQLIKAGFEIRHDTCDEAYEARTIGEVVPVNYGALVCKPS,failed
6,MNNGQPLKHRGVTVEDLLRLRSVRDPHYASDGTHGVFVQKSIDEEKQYCSHLYIWTEDGAVRQWTFGRWRDTRPRFSPDSKTIAFLSDRSGHTQLWLLPADGGEARQLTFFKNGVRDYVWAPDGTFLIALTTLGDNETIDDREEPKKKETKPADLKPRVVERLYYKSDASGFLDGKQAVLVCIDATSGKTEALTSREEEISSFAISPNGRTLAFMANRNEDPDTTFTRDIVLLDLESKAETNLTKGSGTFTSLAWSPDGTKLAAIGHDLAFLGATIHQLYVFEPERGTKRVLTADWDVHLGDAMVGDTHADAKGPGPIWKRDGTGLYVTASERGRVNVYFVPLDGPIVPIIEGDFHVYGLAIHPNEQQAVAAISEPTMIGDLYTISLESGTKTRLTRVNEALENEVTFADAEPFTYQSTDGWDIQGWIMKPPRLGDGEKAPLVVEIHGGPHTMYGFTFFHEFQLLASSGYVVLFTNPRGSHGYGQSFVNAVRGDYGGMDYEDIMAGVDAAIKQFAFIDETRLGVTGGSYGGFMTNWIVGHTNRFRAAVTQRSISNWLSFAGVSDIGYFFTKWEVGCDVWEDAERLWHHSPLKYVKNVRTPLLILHSEHDYRCPIEQAEQLFIALKQLGQETKLVRFPDANHDLSRTGNPALRLERLRQIVGWFDHYLKGPLD,failed
7,MNNLKKYTLVAVFVFLTAVCFQHPGITSAATTITIDPDATYQTIEGWGASICWWGNQIGRWSPDNRNRLIEKIVSPTDGLGYNIFRYNIGGGDNPGHNHMRDYADIQGYQNADRSWNWNADAAQRAVLTRLIERGRYYGSEIILEAFSNSPPYWMTKSGCASGTSDGSNNLRDDCYDDFADYLTEVVKHFRDAWGITFRTLEPMNEPNSDWWKAGGRQEGCSFSYANQQRIIKEVGEKLKAKGLTGTTVSAADEASIDTALEGLQSYDATTLSYMSQLNVHSYFGSKRAQLRDLAKSKGLRIWQSESGPLSFNGDMADSCIMLSKRIVTDLKELQCVAWLDWQIIDGGNWGSIYVDDASQTFTLTEKFYMHANYSRFIRPGYTIIGANNEKTIAAISPDKKKLVIVATNDNKSSSANYTFNLTRFSGVNSTVEVYRTSPSLSLAKSIITASNKIVSDTLPPYSINTYVITLDGGVESVPAVGLQSYNYPNRYVRHADFDARIDENVTPLEDSQWRLVPGLANSSEGYVSIQSVNYPGYYLRHWDYDFRLDKNDGTTIFAEDATFKLVPGLADPSCVSFQSYNYPDRYIRHYGYLLKLERISTDLDRQDATFLIISDDSPGPITDSGYIMAYFKQAPGEYGLNLCYSTDGLHWRNINDGKPVLYAQMGTKGIRDPYIFRKQDGKFGIVATDMLGTNWGDTSQYIHYWESEDLINFTERLIKVHNKSNMHAWAPEVFYDENRKQYGIYWAGNTDYNRIYVNYTTDFDTVSDCQVFFDPGYDVIDAHIVSDKGMYYLFFKDERASGKAIKVARSSSLTPNSFTVFTPNFITSPNTEGPFVFKDNNSDSWYMYVDIYSNNGIFECWKTNDLNALSWTKVTGISVPPGVRHGSVVKVNRWELETAISRKVVTPPAPTPPPVLKGDVNADGVINSSDIMVLKRFLLRTITLTEEMLLNADTNGDGAVNSSDFTLLKRYILRSIDSFPV,failed
8,MNNPKPCEWKSNELSRGYIADYKAFNFVDGEGVRCSLYVSGCPFHCEGCYNKAAQSFKYGKPYTKELEDDILKDIGHESVQGLTLLGGEPFLNTATCLSVVKRIRATYGKTKDIWSWTGYTWDEMMQETTDKLELLSLIDVLVDGRFEQKLFDPNLAFRGSSNQRIIDVQKSLAADEVVLYELLEHHHHHH,not failed
9,MNNTNPLVSIIVPVYKVERYIHRSIDSLLRQTYNNLEIILVDDGSPDNCPFICDKYAMQDNRIRVIHKSNGGLSDARNAALNVMTGQYVTFVDSDDYIADNMIEKFIETVKLYQCNMVVAGMNIIDKNNQIYDYRRTLTSTLSTGIDITRKLLKDVFPFNFVCAKIFESSLFEEIRFPVGRHYEDTATTYKLTHKCERIYCIADCLYFYELEREGNITSELNTSKAIKSYIDGCLNSREQIFFCQKHKDFSDLLPVLTKRLQLWALLAIQSAISLGYKEYMFYYHQIRIYIRSLSYTQRMTHLQIALTFPIIYYSLYPLLSRLKKMYKN,failed
10,MNNTQKKLKVLFIGESWHIHMIHSKGYDSFTSSKYEEGATWLLECLRKGGVDIDYMPAHTVQIAFPESIDELNRYDVIVISDIGSNTFLLQNETFYQLKIKPNALESIKEYVKNGGGLLMIGGYLSFMGIEAKANYKNTVLAEVLPVIMLDGDDRVEKPEGICAEAVSPEHPVVNGFSDYPVFLGYNQAVARDDADVVLTINNDPLLVFGEYQQGKTACFMSDCSPHWGTQQFMSWPFYTDLWVNTLQFIARK,not failed
11,MNNTQQFSLSMRLFHWAMAALVISMLAAGLLMVRSLEPWQLSILTVHKAFGVVAAALVIARLMNRLFHQIPALPGDLSSLQTFVAKASHWLLYLLLFAMPISGYLMQYFAGRPIDVFGWFRLPSALTVNIENYAIFRELHGWLAIALMALVALHVAAALHHHFIRKDTVLKSML,failed
12,MNPEVTVLMSVYNDKNYLSESIESILNQTFENFEFLIINDASTDGSGELLEEYSKKDKRIRLIHNKNNRGLSYSLAEGVSLAKAPWIARMDADDVSFKDRLAVQMDHVKAHSELDILGSYVIDIDDKGNELEIRKVPTTHKEIANLIWTCPFIHPTVLFKKDSIIKAGSYDRNLRRRQDYDLWFRCLEAKLKFENIDKPLLYYRSTDDYYKKNNFKVQVQQAKMGFAGARRVKAKPIAYIGITVAFIKGILPYHIRKPLSQLLKKVDPRRALEHHHHHH,not failed
13,MNPIKPPFTLNQYFAAWFVHVFTASAACIGVFSLYKIYQHDYVFALWLMAITVFIDAVDGSLARLVHVKSVLPKIDGALLDNIVDYLNYVITPCFFLLVKPGMLPADYVVPITAAITITSAYQFCQDDAKTPDHFFKGFPCYWNITVFYMYIFNTSMIVNTVLLSLFCVLIFIPVKYVYPSRLDYLTESRVLKILMHCCSALYGISSFCLLVNYPETNKLWVSLSLGYVGMYLFLSFYRTYYPMFKAKITANNKD,failed
14,MNPTLSAAVTAPSAGTQDAEAEIRDLAQSLTLEQQVQLLTGADVWSTHAIPEIGLSRVVMSDGPAGVRGEDFDERHDSVSLPSSSALSATWSVETARNYGQVLGQEARRKGVHAVLGPTINLHRSPLGGRHFECMSEDPRLTATMAAGYVAGVQSMGVGATPKHYLANEAETERFTADSVVDERPLRELYLAAFEDAITEARAWLVMSSYNSINGTTASENKLLETPLSTEWGFDGVVVSDWTGVRSIDAANAHQDLEMPGPVGHWGPKLLAAVNEGRVSREAILEKVTRILRLAARVGSLEGFEPAVTHLPTELNGAAVAREVAVRGAVLVRNKGLLPLDAKALGSVAVIGHNADEARTQGGGSATVMPKYTVSPLEGLRKALPEGVKVTYARGAKVAEGIQAFPRTSLHNPVSNVPGIRVTFLAEDGTEISGEDRLASHLIWFGIGIPDGAASIRMEADWTAETAGVHHLGVGTVGRIRFVLDGTEVFNSELEDDTEVLGAALFDPPKTVHAIDTTAGQSIRIEAEYQLPKEQVIPFTAILLGEETVVAEPQAEIDAAVEAARASDVAVVVVGTNAAIESEGFDRKDLDLPGYQNQLVKAVAAANPRTVVVVNSGSPVLMPWLDTVDAVLLGWFGGQEFGSAVADILLGVEEPGGRLPTTWPSALDDVPVLNTTPTDGKVVYSEGIHIGYRAWLKQQAEGGAAPALPFGFGLGYTTFEFGKAHAPQAVTAGKDLVVHVPVKNTGTRTGREVVQVYVERTESAVERPVRWLAGYAGAHLAPAGTESVEIRIPAKAFAHYDGGWQFEQGTFRLLVGRHAADDFQSLDIELR,failed
15,MNQEVRFSRLEPEQRKALLIEATLACLKRHGFQGASVRKICAEAGVSVGLINHHYDGKDALVAEAYLAVTGRVMRLLRGAIDTAPGGARPRLSAFFEASFSAELLDPQLLDAWLAFWGAVGSIEAIGRVHDHSYGEYRALLVGVLRQLAEEGGWADFDAELAAISLSALLDGLWLESGLNPATFTPRQGVQICEAWVDGLEAGAHRRFRRAMEAC,not failed
16,MNQHLSISPSVSRPVWHQAIPLLLLEAALVLTWSSGFIGARFSLDYAPPLLVVFWRCVVVTLLLLPFVARQLVTLPPTLLLKNTGIGLLAMTGYVAGVTQGIALGVPAGLAALFADLLPMGMALLAALVLGQRLVWQIWAGLVVGLIGVVLVTHSALEWGNAPLWAYGLPLLGMFSLAIATLWQKHSTTSQPMKLLPNLWLQYFISSFAFAIIQGTQGGLAPIASSGFALSVAWTVGLATLGGYGLYWVCLRRAKATRVASVLYLSPPVTMLWAWAMFDEPLSWQIALGMVVSGVGVWMVIRAEARQVAS,failed

# — a protein production outcome set (Wang et al. 2014)
